Biological target: Fbxl17 (UniProt Q9UF56)
Assay: HA-Sufu IP, Myc-Fbxl17 blot
Conditions: reference: Sufu wild type; sites S342,S346

Sufu (from UniProt Q9UMX1) Sufu S342A/S346A
binding against the reference: stronger

Source: publication PMC4884786
